According to patent US20230348600A1 (INHIBRX, published 2023):

What was measured:
[1] = target: T1, human CD28 (full-length, cell surface) (human, UniProt P10747 19-220); assay: flow cytometry, titration of sdAb-hFc on HEK293FS cells transiently transfected with full-length human CD28; Alexa Fluor 647 anti-human IgG
T1 construct: On HEK293FS cells transiently transfected with full-length human CD28, or endogenous on Jurkat cells and primary human T cells; also called hCD28; cluster of differentiation 28
Procedure: HEK293FS transiently transfected with full-length human CD28 or cynomolgus CD28 were used as CD28-positive cells. Untransfected HEK293FS cells were used as CD28-negative cells. Cells were seeded in 96-well round-bottom plates at 3×10³ cells/well in FACS buffer. The exemplary generated sdAb-hFcs were titrated onto cells and assay plates were incubated for 30 minutes at 4° C. […] Assay plates were incubated for 30 minutes at 4° C. and then cells were washed two times with FACS buffer and resuspended in FACS buffer for analysis using an Intellicyt iQue®.

[2] = target: T1, human CD28 (full-length, cell surface); assay: flow cytometry, titration on Jurkat cells (5T4-/PDL1-/CD28+)
[3] = target: T1, human CD28 (full-length, cell surface); assay: flow cytometry, titration on Jurkat cells (endogenous CD28)
[4] = target: T1, human CD28 (full-length, cell surface); assay: flow cytometry on Jurkat cells and primary T cells enriched from PBMCs (endogenous CD28)

B1: 2F11 CD28 sdAb formatted with human IgG1 Fc (sdAb-hFc) (Fc fusion)
chain: QVQLQQSGGGLVQAGGSLRLSCVASGISFNVVDMDWHRQAPGKERELVAGITRGGATYYADSVKGRFTISRDNAKNSAYLQLANLKPEDTAVYYCNARWPSRYQNYWGQGTQVTVKPPAPELLGGPSVFLFPPKPKDTLMISRTPEVTCVVVDVSHEDPEVKFNWYVDGVEVHNAKTKPREEQYNSTYRVVSVLTVLHQDWLNGKEYKCKVSNKALPAPIEKTISKAKGQPREPQVYTLPPSRDELTKNQVSLTCLVKGFYPSDIAVEWESNGQPENNYKTTPPVLDSDGSFFLYSKLTVDKSRWQQGNVFSCSVMHEALHNHYTQKSLSLSPGK
notes: Bivalent sdAb-IgG1 homodimer; I treated them as the same clone; also called 2F11 sdAb-IgG1
- binding result [1]: binds

B2: cx694 (PDL1xCD28 bispecific construct) (bispecific antibody)
chain: EVQLLESGGGEVQPGGSLRLSCAASGGIFAIKPISWYRQAPGKQREWVSTTTSSGATNYAESVKGRFTISRDNAKNTLYLQMSSLRAEDTAVYYCNVFEYWGQGTLVTVKPGGSGGGGSEVQLVQSGGGLVQTGGSLRLSCAASGRMFSNYAMGWFRQAPGKEREFVAAINYRRDSADYADSVKGRFTISRDNAKNTVYLEMNSLKPEDTAIYYCGFTYAGWASSRRDDYNYWGQGTQVTVKPPAPGGPSVFLFPPKPKDTLMISRTPEVTCVVVDVSHEDPEVKFNWYVDGVEVHNAKTKPREEQYNSTYRVVSVLTVLHQDWLNGKEYKCKVSNKALPAPIEKTISKAKGQPREPQVYTLPPSRDELTKNQVSLTCLVKGFYPSDIAVEWESNGQPENNYKTTPPVLDSDGSFFLYSKLTVDKSRWQQGNVFSCSVMHEALHNHYTQKSLSLSPGK
notes: also called PDL1xCD28 bispecific protein
- binding result [2]: no binding

B3: 1C9 CD28 sdAb formatted with human IgG1 Fc (sdAb-hFc) (Fc fusion)
chain: EVQLVQSGGGLVQTGGSLRLSCAASGRMFSNYAMGWFRQAPGKEREFVAAINYRRDSADYADSVKGRFTISRDNAKNTVYLEMNSLKPEDTAIYYCGFTYAGWASSRRDDYNYWGQGTQVTVKPPAPELLGGPSVFLFPPKPKDTLMISRTPEVTCVVVDVSHEDPEVKFNWYVDGVEVHNAKTKPREEQYNSTYRVVSVLTVLHQDWLNGKEYKCKVSNKALPAPIEKTISKAKGQPREPQVYTLPPSRDELTKNQVSLTCLVKGFYPSDIAVEWESNGQPENNYKTTPPVLDSDGSFFLYSKLTVDKSRWQQGNVFSCSVMHEALHNHYTQKSLSLSPGK
notes: Bivalent sdAb-IgG1 homodimer; also called 1C9-IgG1; 1C9 sdAb-IgG1
- binding result [1]: binds

B4: cx984 (CD28 monospecific construct) (Fc fusion)
chain: EVQLVQSGGGLVQTGGSLRLSCAASGRMFSNYAMGWFRQAPGKEREFVAAINYRRDSADYADSVKGRFTISRDNAKNTVYLEMNSLKPEDTAIYYCGFTYAGWASSRRDDYNYWGQGTQVTVKPPAPGGPSVFLFPPKPKDTLMISRTPEVTCVVVDVSHEDPEVKFNWYVDGVEVHNAKTKPREEQYNSTYRVVSVLTVLHQDWLNGKEYKCKVSNKALPAPIEKTISKAKGQPREPQVYTLPPSRDELTKNQVSLTCLVKGFYPSDIAVEWESNGQPENNYKTTPPVLDSDGSFFLYSKLTVDKSRWQQGNVFSCSVMHEALHNHYTQKSLSLSPGK
notes: Homodimer of two identical chains; also called monospecific, bivalent CD28 sdAb cx984
- binding result [3]: binds

B5: 1C9-xELL (1C9 CD28 sdAb formatted with variant human IgG1 Fc xELL) (Fc fusion)
chain: EVQLVQSGGGLVQTGGSLRLSCAASGRMFSNYAMGWFRQAPGKEREFVAAINYRRDSADYADSVKGRFTISRDNAKNTVYLEMNSLKPEDTAIYYCGFTYAGWASSRRDDYNYWGQGTQVTVKPPAPGGPSVFLFPPKPKDTLMISRTPEVTCVVVDVSHEDPEVKFNWYVDGVEVHNAKTKPREEQYNSTYRVVSVLTVLHQDWLNGKEYKCKVSNKALPAPIEKTISKAKGQPREPQVYTLPPSRDELTKNQVSLTCLVKGFYPSDIAVEWESNGQPENNYKTTPPVLDSDGSFFLYSKLTVDKSRWQQGNVFSCSVMHEALHNHYTQKSLSLSPGK
notes: also called 1C9 sdAb-xELL
- binding result [4]: binds

B6: 1G7 CD28 sdAb formatted with human IgG1 Fc (sdAb-hFc) (Fc fusion)
chain: EVQLVQSGGALVQAGGSLRLSCVAPRTIGLISLMGWYRQAPGKQRELVATIIASGRTNYAESVKDRFTISRDNAENKVYLQVNSLKPEDTAVYYCRVNAETAPWSRRGFWGQGTQVTVKPPAPELLGGPSVFLFPPKPKDTLMISRTPEVTCVVVDVSHEDPEVKFNWYVDGVEVHNAKTKPREEQYNSTYRVVSVLTVLHQDWLNGKEYKCKVSNKALPAPIEKTISKAKGQPREPQVYTLPPSRDELTKNQVSLTCLVKGFYPSDIAVEWESNGQPENNYKTTPPVLDSDGSFFLYSKLTVDKSRWQQGNVFSCSVMHEALHNHYTQKSLSLSPGK
notes: also called 1G7 sdAb-IgG1
- binding result [1]: binds

B7: cx8370 (PDL1xCD28 bispecific construct) (bispecific antibody)
chain: EVQLLESGGGEVQPGGSLRLSCAASGGIFAIKPISWYRQAPGKQREWVSTTTSSGATNYAESVKGRFTISRDNAKNTLYLQMSSLRAEDTAVYYCNVFEYWGQGTLVTVKPGGSGGSEVQLVQSGGGLVQTGGSLRLSCAASGRMFSNYAMGWFRQAPGKEREFVAAINYRRDSADYADSVKGRFTISRDNAKNTVYLEMNSLKPEDTAIYYCGFTYAGWASSRRDDYNYWGQGTQVTVKPPAPGGPSVFLFPPKPKDTLMISRTPEVTCVVVDVSHEDPEVKFNWYVDGVEVHNAKTKPREEQYNSTYRVVSVLTVLHQDWLNGKEYKCKVSNKALPAPIEKTISKAKGQPREPQVYTLPPSRDELTKNQVSLTCLVKGFYPSDIAVEWESNGQPENNYKTTPPVLDSDGSFFLYSKLTVDKSRWQQGNVFSCSVMHEALHNHYTQKSLSLSPGK
- binding result [2]: no binding
